Patent publication US20140287419A1, “Compositions Having Dicamba Decarboxylase Activity and Methods of Use” (priority 2013, published 2014)
Where a chain is given by its changes, count along the chain named.

B1: SEQ ID NO:28: 5-carboxyvanillate decarboxylase, Sphingomonas paucimobilis (protein, listed as Sphingomonas paucimobilis)
chain: MARLIATEEAVTFQPVVDALRAHSRTDDASLDMILVRDVYGDEPARPAMIGRLSDVTGERLAEMDSNGVDMHLLSLTAPGVQMFDAETGTRLARIANDLMAQTVAANPTRFAGLGTFAPQDPASAAREIERVATQLRLNGLVINSHTNDLYYDDPFFHPVFEAIEASGLALYIHPRAPSKQIDRAFRDYGMNSAIWGYGIETSTNAVRMILSGLFDRFPRLKIVLGHMGEAIPFWLWRLDYMHGNATTFGGAPKLKLKPSEYFRRNFAITTSGVESHAALRYSIEVLGPENVMWAIDYPYQPMAPAVQFIRTAPIPEDVKAMVAGGNAARIFRIT
B2: SEQ ID NO:30: o-pyrocatechuate decarboxylase, Enterobacter aerogenes KCTC 2190 (protein)
chain: MARGKIALEEHVSTPENNRLWDSTGEANRNGSEYMQDVERRLLDRSIQLEEMAQRNIDHVILSLTSPGAQSILDKAKAVSFARDTNDFIVDNYVKPNPDKFSAFATLALQNPEAAAEELERAVKKLGMKGALINGYTNVKDSEHGLYLDDESMLVFWDKVNELNVPVYLHPREPLEGPARGIYTGYESLIGSAWGFAQETAVHAIRLMMSGLFDRYPNLNLVLGHLGEGLVHMLPRTQHRLYRQRFGCGLGKAEKPLMHYLQNNFIVTTSGHFNTHSLNNAIEVMGADRVMFSVDYPYEDIHQACDWFDPLEMDEGLKEKIAWGNASRVFNIK
modifications: Enterobacter aerogenes
B3: SEQ ID NO:35: amidohydrolase, Burkholderia sp. CCGE1001 (protein)
chain: MAFKASRKIALEEHFAIDATVQDSAGFVPPSYWAELKRRLLDIHDRRIDEMDRNGVELMVLSLNAPTVQAVPNIKDAYDLSRRANDFLAEQIVKRPERFKGFAALPMQSPDLAARELERCVKELNFVGALVNGFSQVEESGTALYYDLPQYRQFWSVVQALDVPFYLHPRNPLPAHAPIYEGHPWLLGPTWAFGQETAVHALRLMGSGLFDEYPELKIILGHMGEGLPYSMWRIDNRNAWVETQPNYPAKKRIAEYFHKNFWLTTSGNFRTQTLIDAMLEIGSDRILFSTDWPFENVDHAAQWFDDAAISENDRIKIARTNAARLFKLEP
modifications: Burkholderia sp
B4: SEQ ID NO:49: amidohydrolase 2, Streptomyces sp. SPB78 (protein, listed as Streptomyces sp.)
chain: MAKIIALEEHFSDPAVAKAGAARARALSPGFAASYSPASGLPYSPSPEVLENLAEKRLADMDAGGITMQVLSGLGAQTVPADVAPALVAGSNDKAAAAVRAHPDRFAAFAALPTATPEAAVAELDRSVNELGFVGTLIMGRTEGEFLDAPRFEPILARAAALKVPVFLHPGVPPREITDSNYAAGLPTGIGTRLQTAAWGWHQETAVHFLHLVHSGVLDRYPDLQFILGHWGEMIPFYLDRVDEALPQRATGLDRSFHEYFRENVYLAPSGMWSQAQLRFCLETVPLERIVFAVDYPFIGNEGAVPFLEKAELPQADKRKIAHENAERLLGL
B5: SEQ ID NO:33: amidohydrolase, Rhizobium leguminosarum bv. viciae 3841 (protein, listed as Rhizobium leguminosarum)
chain: MAQGKIALEEHFAIPETLQDSAGFVPGDYWKELSARLLDIQEKRLRLMDAHGIEKMILSLNAPAVQAIPDRAKALEISRRANDFLAEQCVKNPNRFLGFAALPLQDPDAATQELQRCVTTMGFVGALVNGFSQEGDGTTPLYYDLPQYRSFWAEVEKLNVPFYLHPRNPLPQDSRIYAGHSWLMGPTWAFAQETAVHALRLMGSGLFDEHPALRIIVGHMGEGLPYMMWRIDNRNAWVKVEKSYPAKRPIADYFNENFYITTSGNFRTQSLIDAMLEIGADRILFSADWPFENIDHAANWFDSATISEADRLKIGRTNAVSLFKLDR
B6: SEQ ID NO:43: amidohydrolase, Rhizobium leguminosarum bv. trifolii WSM2304 (protein, listed as Rhizobium leguminosarum)
chain: B5 chain with K31T, E42D, A50T, R71K, L75V, S150P, N159D, I294V
B7: SEQ ID NO:48: amidohydrolase, Amycolatopsis mediterranei U32 (protein, listed as Amycolatopsis mediterranei)
chain: MASMKLYGLEEHFVTADVIEAWRRRDPGLAEPMMKWAVASDITPALLDVDGGRIAAMDDAGIDTTVLSLTTPGLQNLDAAEAVALQAPTNDLIAAAVRRHPGRFQGFATLATSAPAAAADELRRAVTELGLNGALVNANSRGRALDAPGFWDIYEAAEDLRAPVYLHPGVPVPAVTEAYYRGFGEPVNSMLATGAFGWHYDAGLTILRMIVAGVFDRFPGLQVILGHWGEVVLFYLDRVAAMDKLTALRRPIAEYFRSNIFITPGGISSHKYLRWSLETVGVERIMYASDYPFNTERAGSARRFLDTAPVDEAGRERIAYRNWEELIAGIRR
B8: SEQ ID NO:44: amidohydrolase, Mycobacterium avium 104 (protein, listed as Mycobacterium avium)
chain: MARIITVEEHFQHPEVSARVAELTGPAVEGLAEFGNAFSLDPDSTARLGGNRLAHMDQVGIDVQVVSHGNGSPGTLQHPEAVELCRRVNNDLAAQIAENPDRFRGFATLPLYDPAAAAEELRRCVGDLGFVGALIAGSYDGLFLDDERFDPILTAAEAVDFPIYVHPGLPEAPVSQRYYAGSWPASVHMMFSGPAFGWHAEAGIHIVRLILSGALDRHPTLKLLSGHWGELAAFYLERLDETLGLLPTGLERAPSDYYRQQVWITPSGMYNQNQLNFMTAELGAQRIIYSEDFPYVVRDNVSTFLEQAGLSEADTHAIAHTNAEALLRI
B9: SEQ ID NO:46: decarboxylase, Rhodococcus opacus B4 (protein, listed as Rhodococcus opacus)
chain: MARIITLEEHYLDPAIAAASAPLARELSPDFAAAYDPASGLSYTPSAQVLQDLGQRRIADMDTHGISMQVLSCLTTQQVPADVAPDLVRAANDTAAAAVRAHPDRFAAFAALPTTAPDAAATELARCIDDLGFVGTMINGRTDGEFLDAPRFDPILATAAARNVPIYLHPAVPPRATSDSNYAGLAPLVTARLQTSAWGWHQETAVHFLHLVLSGVLDRYPNLQFILGHWGEMIPFYLDRLDEALPQAVTNLDRTISDYVRENVYITPSGMFNQAQLQYCVETLGVDRILYSVDYPFIGNDGAVSFLDEANLPDEAKHQIAHQNTEKLLGL
B10: SEQ ID NO:47: hypothetical protein SOD_m00560, Serratia odorifera 4Rx13 (protein, listed as Serratia odorifera)
chain: MAKIICLEEHTLDKALVMASMPAALAQAPFLSDWGKTITDGNLPDRSRPQIEKNDLINVKGADIGRGRLDDMDEAGITMQVLSVGGFPHLISAAEGVDLNRAANDRLANAVNAHPDRFAAFATLPWAQPDAAEKELERAVKELGFKGALLNGRPSIHFLDHPDYDGLLARFNALGVPLYLHPGLPVRSVQQAYYSGFSDEVTARLSMFGWGWHHEAGIHLLRLILSGAFDKYPNLQVISGHWGEMLPFWLQRLDDSLPQAATGLRRTITQTFREQVYVTPSGMLTLPHFQFIYALLGAERILFSVDYPYQTLDGVKAFIQSLPVPEEAKEAIAFRNAERLFGLTS
B11: SEQ ID NO:34: amidohydrolase, Cupriavidus necator N-1 (protein)
chain: MAQGKIGLEEHFAIPETLNDSAGFVPGDYWKELSRRLLDIQDDRLRQMDENGMEMMLLSLNAPAVQAVPDRKQACELAVRANDFLAEQVSRRPDRFQALAALPLQDPDFATVELTRCVNELGMRGALVNGFSQIDTPDNVVYYDAPQYASFWAAVEKLDVPFYLHPRNPIASWAQIYDGHPWLLGPTWAFGQETAVHALRLMASGLFDRHPALQIVLGHLGEGLPYSLWRIDNRNAWVKAPKTHPAKKTFRHYFQQNFHLTTSGNFHNQTLIDAILEIGADRILFSTDWPFENIDHAAKWFDSASISEADRTKIGRTNAMKLFKLVA
modifications: Cupriavidus necator
B12: SEQ ID NO:31: reversible 2,6-dihydroxybenzoic acid decarboxylase, Agrobacterium sp. H13-3 (protein, listed as Agrobacterium sp.)
chain: MAQGKVALEEHFAIPETLQDSAGFVPGDYWKELQHRLLDIQDTRLKLMDAHGIETMILSLNAPAVQAIPDKTKAIEIARRANDVLAEECAKRPDRFLAFAALPLQDPDAATEELQRCVNDLGFVGALVNGFSQEGDGQTPLYYDLPQYRPFWGEVEKLDVPFYLHPRNPLPQDSRIYDGHPWLLGPTWAFAQETAVHALRLMASGLFDEHPRLNIILGHMGEGLPYMMWRIDHRNAWVKLPPRYPAKRRFMDYFNENFHITTSGNFRTQTLIDAILEIGADRILFSTDWPFENIDHASDWFNATSIAEADRVKIGRTNARRLFKLDGA
B13: SEQ ID NO:36: hypothetical protein AGRO_1970, Agrobacterium sp. ATCC 31749 (protein, listed as Agrobacterium sp.)
chain: B12 chain with K31T, V84A, D94N, E112Q, T139I, M251V, N302H, A328R

Experiment: 14C assay with IPTG-induced recombinant E. coli cells (14CO2 capture from [14C]-carboxyl-labeled dicamba)
Details: E. coli cell assay, 108 sequences tested
In the case of B1, the “decarboxylation activity of dicamba” value is reported as “showed decarboxylation activity of dicamba”. In the case of B2, the “decarboxylation activity of dicamba” value is reported as “showed decarboxylation activity of dicamba”. With B3 the “decarboxylation activity of dicamba” value was “showed decarboxylation activity of dicamba”. For B4, the “decarboxylation activity of dicamba” value was “showed decarboxylation activity of dicamba”. With B5 the “decarboxylation activity of dicamba” value was “showed decarboxylation activity of dicamba”. With B6 the “decarboxylation activity of dicamba” value was “showed decarboxylation activity of dicamba”. In the case of B7, the “decarboxylation activity of dicamba” value is reported as “showed decarboxylation activity of dicamba”. For B8, the “decarboxylation activity of dicamba” value was “showed decarboxylation activity of dicamba”. For B9, the “decarboxylation activity of dicamba” value was “showed decarboxylation activity of dicamba”. For B10, the “decarboxylation activity of dicamba” value was “showed decarboxylation activity of dicamba”. With B11 the “decarboxylation activity of dicamba” value was “showed decarboxylation activity of dicamba”. With B12 the “decarboxylation activity of dicamba” value was “showed decarboxylation activity of dicamba”. For B13, the “decarboxylation activity of dicamba” value was “showed decarboxylation activity of dicamba”.
